The data set concerns the molecule itself. Kind of data set: SEC.

B1: DY-647P1-labeled recombinant human Bax single cysteine mutant (S4C, C62S, C126S) (natural protein)
chain: MDGCGEQPRGGGPTSSEQIMKTGALLLQGFIQDRAGRMGGEAPELALDPVPQDASTKKLSESLKRIGDELDSNMELQRMIAAVDTDSPREVFFRVAADMFSDGNFNWGRVVALFYFASKLVLKALSTKVPELIRTIMGWTLDFLRERLLGWIQDQGGWDGLLSYFGTPTWQTVTIFVAGVLTASLTIWKKMG
modifications: cysteine labeling with DY-647P1 (single cysteine mutant; degree of labeling ~74 %)
As to B1, the binding result is “binds”.

Source of the values: publication doi:10.1101/2025.11.14.688508 (bioRxiv, 2025).
